Laboratory results published in patent publication US20100184658A1 (published 2010).

How the values were obtained:
Assay in all cases: cell-based or functional assay
GRK7 = biological target: T1, GRK7 (UniProt Q8WTQ7 1-553, limits assumed)
T1 sequence (looked up): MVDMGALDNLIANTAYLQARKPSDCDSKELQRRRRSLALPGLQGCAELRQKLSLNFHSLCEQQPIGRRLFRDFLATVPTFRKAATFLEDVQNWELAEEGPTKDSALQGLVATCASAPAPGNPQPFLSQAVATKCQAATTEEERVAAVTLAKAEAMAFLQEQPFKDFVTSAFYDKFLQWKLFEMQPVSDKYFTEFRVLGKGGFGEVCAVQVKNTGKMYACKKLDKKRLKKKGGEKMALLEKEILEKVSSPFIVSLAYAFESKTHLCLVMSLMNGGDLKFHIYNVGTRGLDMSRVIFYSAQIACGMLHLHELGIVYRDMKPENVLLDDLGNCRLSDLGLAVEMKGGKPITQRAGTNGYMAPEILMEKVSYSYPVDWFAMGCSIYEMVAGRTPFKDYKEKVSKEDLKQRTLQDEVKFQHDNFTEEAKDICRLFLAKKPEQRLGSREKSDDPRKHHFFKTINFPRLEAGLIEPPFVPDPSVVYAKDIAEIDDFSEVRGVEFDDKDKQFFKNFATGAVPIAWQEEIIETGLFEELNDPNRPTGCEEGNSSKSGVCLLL

CLK3 = CLK3 (UniProt P49761 1-490, limits assumed)
PRKCB2 (PKC beta II) = PRKCB2 (PKC beta II) (human (printed as (h)), UniProt P05771-2 1-673)
[1] = biological target: RPS6KA4 (MSK2) Ribosomal protein S6 kinase, 90 kDa, polypeptide 4 (UniProt O75676 1-772, limits assumed)
[2] = biological target: RPS6KA3 (RSK2) Ribosomal protein S6 kinase, 90 kDa, polypeptide 3 (UniProt P51812 1-740, limits assumed)
[3] = biological target: MAPK10 (JNK3) Mitogen-activated protein kinase 10 (UniProt P53779 1-464, limits assumed)
PRKCG (PKC gamma) = PRKCG (PKC gamma) (UniProt P05129 1-697, limits assumed)
PRKD1 (PKC mu) = biological target: T2, PRKD1 (PKC mu) (UniProt Q15139 1-912, limits assumed)
T2 sequence (looked up): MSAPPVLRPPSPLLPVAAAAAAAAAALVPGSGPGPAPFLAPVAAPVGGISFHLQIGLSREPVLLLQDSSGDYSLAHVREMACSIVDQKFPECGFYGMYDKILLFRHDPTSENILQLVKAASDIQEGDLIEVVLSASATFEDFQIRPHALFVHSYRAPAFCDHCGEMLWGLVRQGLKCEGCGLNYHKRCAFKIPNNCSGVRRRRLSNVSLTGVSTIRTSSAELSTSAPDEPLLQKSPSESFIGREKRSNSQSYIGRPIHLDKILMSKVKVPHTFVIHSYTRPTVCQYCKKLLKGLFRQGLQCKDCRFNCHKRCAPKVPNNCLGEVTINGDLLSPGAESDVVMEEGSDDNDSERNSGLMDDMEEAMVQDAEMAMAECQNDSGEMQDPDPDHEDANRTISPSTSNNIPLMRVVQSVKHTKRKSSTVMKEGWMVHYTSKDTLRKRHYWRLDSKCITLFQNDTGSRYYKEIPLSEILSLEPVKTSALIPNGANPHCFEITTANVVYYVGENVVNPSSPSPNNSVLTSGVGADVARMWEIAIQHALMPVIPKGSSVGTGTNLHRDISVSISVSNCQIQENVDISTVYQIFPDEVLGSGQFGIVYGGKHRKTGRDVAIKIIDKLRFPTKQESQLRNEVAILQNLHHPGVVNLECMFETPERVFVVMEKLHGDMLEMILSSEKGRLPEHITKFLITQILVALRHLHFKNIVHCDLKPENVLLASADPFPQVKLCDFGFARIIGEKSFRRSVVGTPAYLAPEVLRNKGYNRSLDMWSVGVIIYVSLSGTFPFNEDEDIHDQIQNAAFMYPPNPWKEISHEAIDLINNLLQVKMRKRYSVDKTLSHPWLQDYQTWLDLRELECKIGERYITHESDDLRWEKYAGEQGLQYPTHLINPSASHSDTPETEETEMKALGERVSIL

ABL1 E255K = ABL1 E255K (UniProt P00519 1-1130, limits assumed)
DYRK4 = biological target: T3, DYRK4 (UniProt Q9NR20 1-520, limits assumed)
T3 sequence (looked up): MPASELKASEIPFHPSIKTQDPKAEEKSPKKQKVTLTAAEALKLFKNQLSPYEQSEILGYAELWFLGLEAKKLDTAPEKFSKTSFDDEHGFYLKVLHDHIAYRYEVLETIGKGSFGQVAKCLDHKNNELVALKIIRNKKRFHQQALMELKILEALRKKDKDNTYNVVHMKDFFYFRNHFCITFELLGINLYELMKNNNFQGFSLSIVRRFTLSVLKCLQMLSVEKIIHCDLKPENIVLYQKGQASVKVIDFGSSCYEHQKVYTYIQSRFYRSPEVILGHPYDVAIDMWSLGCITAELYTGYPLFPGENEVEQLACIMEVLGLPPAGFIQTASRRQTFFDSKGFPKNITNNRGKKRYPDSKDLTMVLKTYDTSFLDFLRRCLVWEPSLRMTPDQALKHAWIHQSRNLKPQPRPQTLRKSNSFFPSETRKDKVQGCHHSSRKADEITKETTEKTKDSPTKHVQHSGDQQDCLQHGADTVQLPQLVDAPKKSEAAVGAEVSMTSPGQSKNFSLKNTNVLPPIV

PRKCD (PKC delta) = PRKCD (PKC delta) (UniProt Q05655 1-676, limits assumed)
Note: test concentration or dose not given here.

Sequence of MAPK10 (JNK3) Mitogen-activated protein kinase 10 (P53779 whole entry): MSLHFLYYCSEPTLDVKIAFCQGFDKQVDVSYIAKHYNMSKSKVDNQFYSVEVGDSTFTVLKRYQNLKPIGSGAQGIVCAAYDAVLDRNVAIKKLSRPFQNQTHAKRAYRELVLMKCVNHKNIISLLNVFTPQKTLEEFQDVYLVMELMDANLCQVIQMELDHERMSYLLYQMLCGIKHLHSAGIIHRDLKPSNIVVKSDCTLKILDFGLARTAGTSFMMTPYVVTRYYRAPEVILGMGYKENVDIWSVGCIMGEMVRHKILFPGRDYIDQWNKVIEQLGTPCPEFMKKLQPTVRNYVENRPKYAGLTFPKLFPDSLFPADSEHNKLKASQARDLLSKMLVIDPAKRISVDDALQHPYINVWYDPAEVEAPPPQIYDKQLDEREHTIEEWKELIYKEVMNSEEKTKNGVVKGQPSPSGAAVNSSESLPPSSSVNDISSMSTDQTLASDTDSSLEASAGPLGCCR
Sequence of RPS6KA4 (MSK2) Ribosomal protein S6 kinase, 90 kDa, polypeptide 4 (O75676 whole entry): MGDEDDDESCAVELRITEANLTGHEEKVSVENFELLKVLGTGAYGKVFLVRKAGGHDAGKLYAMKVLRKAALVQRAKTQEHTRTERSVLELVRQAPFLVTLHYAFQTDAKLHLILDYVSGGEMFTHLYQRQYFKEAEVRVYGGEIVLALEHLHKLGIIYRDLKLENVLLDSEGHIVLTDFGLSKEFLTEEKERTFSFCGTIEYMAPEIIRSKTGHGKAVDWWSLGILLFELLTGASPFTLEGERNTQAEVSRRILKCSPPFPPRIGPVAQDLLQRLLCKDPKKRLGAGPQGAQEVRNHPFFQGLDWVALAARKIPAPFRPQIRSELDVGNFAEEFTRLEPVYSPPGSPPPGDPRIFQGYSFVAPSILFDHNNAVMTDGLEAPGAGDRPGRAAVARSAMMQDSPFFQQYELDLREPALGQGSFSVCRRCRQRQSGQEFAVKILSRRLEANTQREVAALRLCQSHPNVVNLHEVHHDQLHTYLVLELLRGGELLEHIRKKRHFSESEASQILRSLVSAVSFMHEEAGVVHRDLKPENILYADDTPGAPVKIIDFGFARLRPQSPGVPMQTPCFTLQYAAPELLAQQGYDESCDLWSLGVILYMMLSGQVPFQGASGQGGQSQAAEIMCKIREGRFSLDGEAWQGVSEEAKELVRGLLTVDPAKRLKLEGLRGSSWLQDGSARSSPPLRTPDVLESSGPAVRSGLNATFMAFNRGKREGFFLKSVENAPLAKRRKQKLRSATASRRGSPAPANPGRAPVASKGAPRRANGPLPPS
Sequence of PRKCB2 (PKC beta II) (human (printed as (h)), UniProt P05771-2 1-673) (P05771 other isoform, or with tags, fused parts or gaps limits assumed): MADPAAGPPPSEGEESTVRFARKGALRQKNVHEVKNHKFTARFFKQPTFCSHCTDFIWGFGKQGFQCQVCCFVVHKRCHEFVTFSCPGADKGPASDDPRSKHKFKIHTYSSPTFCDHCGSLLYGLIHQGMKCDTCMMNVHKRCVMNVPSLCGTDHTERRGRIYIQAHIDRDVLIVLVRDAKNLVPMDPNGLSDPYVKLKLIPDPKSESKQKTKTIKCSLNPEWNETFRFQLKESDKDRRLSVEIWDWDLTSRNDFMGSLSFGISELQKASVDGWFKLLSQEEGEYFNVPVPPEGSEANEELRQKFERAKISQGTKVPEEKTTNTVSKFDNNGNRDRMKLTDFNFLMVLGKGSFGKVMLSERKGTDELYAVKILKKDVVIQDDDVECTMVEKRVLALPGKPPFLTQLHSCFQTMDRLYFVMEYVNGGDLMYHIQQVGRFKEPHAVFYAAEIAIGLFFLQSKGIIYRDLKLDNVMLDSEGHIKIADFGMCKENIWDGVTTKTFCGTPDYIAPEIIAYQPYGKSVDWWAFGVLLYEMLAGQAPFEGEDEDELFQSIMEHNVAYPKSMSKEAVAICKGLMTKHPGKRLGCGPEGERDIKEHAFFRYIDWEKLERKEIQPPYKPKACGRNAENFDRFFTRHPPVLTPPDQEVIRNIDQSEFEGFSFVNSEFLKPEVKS
Sequence of PRKCD (PKC delta) (Q05655 whole entry, stated change not applied): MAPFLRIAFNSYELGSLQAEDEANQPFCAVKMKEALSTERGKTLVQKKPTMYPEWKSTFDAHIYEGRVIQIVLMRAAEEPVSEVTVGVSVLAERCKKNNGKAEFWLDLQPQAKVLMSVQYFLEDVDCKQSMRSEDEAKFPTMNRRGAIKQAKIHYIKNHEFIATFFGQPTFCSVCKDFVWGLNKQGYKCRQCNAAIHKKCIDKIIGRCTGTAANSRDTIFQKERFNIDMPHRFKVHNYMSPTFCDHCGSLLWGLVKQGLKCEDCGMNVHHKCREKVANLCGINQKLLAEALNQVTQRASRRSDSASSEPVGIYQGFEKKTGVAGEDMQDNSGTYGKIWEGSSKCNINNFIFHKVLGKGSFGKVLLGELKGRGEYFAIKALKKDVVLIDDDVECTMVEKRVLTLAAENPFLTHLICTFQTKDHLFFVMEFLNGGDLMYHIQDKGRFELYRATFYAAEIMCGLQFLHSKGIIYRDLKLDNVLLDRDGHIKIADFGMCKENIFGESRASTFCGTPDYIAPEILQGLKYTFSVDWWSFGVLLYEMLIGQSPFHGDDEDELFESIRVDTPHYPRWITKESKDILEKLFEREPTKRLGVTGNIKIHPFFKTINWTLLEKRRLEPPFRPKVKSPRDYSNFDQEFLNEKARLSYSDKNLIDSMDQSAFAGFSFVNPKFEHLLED
Sequence of ABL1 E255K (P00519 whole entry E255K): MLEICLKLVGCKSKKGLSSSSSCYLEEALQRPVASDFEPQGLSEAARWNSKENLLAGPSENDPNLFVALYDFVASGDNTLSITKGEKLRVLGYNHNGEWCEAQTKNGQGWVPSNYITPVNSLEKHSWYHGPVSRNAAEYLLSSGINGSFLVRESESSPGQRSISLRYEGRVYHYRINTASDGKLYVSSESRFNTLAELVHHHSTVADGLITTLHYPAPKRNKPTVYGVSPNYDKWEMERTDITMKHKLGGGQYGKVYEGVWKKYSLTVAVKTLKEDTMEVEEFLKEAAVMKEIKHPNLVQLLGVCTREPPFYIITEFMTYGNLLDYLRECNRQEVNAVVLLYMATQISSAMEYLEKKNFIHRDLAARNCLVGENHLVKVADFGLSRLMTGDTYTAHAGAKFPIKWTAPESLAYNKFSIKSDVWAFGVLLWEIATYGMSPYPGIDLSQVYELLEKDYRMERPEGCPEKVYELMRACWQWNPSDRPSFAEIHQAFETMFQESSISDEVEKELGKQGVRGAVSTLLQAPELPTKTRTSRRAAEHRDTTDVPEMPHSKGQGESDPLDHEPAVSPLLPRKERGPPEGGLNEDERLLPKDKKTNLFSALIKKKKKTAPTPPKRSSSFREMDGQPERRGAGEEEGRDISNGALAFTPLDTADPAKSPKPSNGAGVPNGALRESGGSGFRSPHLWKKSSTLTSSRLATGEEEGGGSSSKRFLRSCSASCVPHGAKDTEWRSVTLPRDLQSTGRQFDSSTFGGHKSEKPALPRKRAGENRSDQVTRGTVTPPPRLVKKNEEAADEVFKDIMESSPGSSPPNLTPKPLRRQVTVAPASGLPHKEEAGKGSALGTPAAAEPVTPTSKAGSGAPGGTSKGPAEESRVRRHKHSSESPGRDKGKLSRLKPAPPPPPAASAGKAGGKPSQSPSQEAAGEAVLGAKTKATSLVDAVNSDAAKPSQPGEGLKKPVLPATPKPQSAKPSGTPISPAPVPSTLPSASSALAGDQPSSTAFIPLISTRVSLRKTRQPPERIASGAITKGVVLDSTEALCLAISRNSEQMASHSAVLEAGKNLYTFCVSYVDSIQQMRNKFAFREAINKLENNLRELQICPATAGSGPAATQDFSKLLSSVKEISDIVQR
Sequence of CLK3 (P49761 whole entry): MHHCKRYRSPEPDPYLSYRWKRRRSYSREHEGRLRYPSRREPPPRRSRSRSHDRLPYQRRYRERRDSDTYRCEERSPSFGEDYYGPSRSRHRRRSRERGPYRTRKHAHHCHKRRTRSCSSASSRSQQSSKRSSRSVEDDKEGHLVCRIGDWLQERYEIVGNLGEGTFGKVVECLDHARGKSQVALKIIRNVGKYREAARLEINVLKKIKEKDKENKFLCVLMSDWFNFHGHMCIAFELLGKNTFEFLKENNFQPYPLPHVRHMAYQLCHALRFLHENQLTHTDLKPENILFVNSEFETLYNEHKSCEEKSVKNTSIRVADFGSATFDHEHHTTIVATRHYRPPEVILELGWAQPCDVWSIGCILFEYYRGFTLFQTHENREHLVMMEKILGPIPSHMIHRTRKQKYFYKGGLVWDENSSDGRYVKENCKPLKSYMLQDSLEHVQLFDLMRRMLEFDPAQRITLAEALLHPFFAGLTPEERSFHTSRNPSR

**Q.** How did the “% Inhibition mean” value (GRK7) turn out when SGRPPMIVWFNRPFLIAVSHTHGQTILFMAKVINPVGA [D3 peptide] was run?
**A.** The value was 49.9%.

**Q.** What about the “% Inhibition mean” value (CLK3) of the same binder?
**A.** The value was 46%.

**Q.** And the “% Inhibition mean” value (PRKCB2 (PKC beta II))?
**A.** The value was 61.6%.

**Q.** And the “% Inhibition mean” value [1]?
**A.** Its value is 96.8%.

**Q.** What about the “% Inhibition mean” value [2] of the same binder?
**A.** Its value is 93%.

**Q.** What about the “% Inhibition mean” value [3] of the same binder?
**A.** Its value is 90.7%.

**Q.** What about the “% Inhibition mean” value (PRKCG (PKC gamma)) of the same binder?
**A.** The value was 81%.

**Q.** What about the “% Inhibition mean” value (PRKD1 (PKC mu)) of the same binder?
**A.** The value was 80.6%.

**Q.** What about the “% Inhibition mean” value (ABL1 E255K) of the same binder?
**A.** The value was 65.6%.

**Q.** What about the “% Inhibition mean” value (DYRK4) of the same binder?
**A.** Its value is 61.2%.

**Q.** And the “% Inhibition mean” value (PRKCD (PKC delta))?
**A.** The value was 57.4%.
